From patent US20250269012A1 (AKAMIS BIO, published 2025) come the findings set out here.

The chains are these.
T1: EpCAM (human, UniProt P16422 24-314)
T1 construct: whole, on cells; also called EpCAM cell surface target antigen on A549 and SKOV3 cells
T1 sequence (looked up): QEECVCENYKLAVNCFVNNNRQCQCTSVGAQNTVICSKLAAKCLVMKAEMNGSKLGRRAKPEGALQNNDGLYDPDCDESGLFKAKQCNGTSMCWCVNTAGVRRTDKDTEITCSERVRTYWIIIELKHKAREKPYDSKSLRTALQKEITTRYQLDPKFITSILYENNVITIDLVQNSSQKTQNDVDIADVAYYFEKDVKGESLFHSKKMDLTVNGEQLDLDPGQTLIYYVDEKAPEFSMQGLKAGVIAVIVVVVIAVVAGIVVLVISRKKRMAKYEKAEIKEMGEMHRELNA

B1: anti-EpCAM-ScFv-rigid linker-RAET1G3 fusion protein (without a C-terminal tag) (other)
chain: ELVMTQSPSSLTVTAGEKVTMSCKSSQSLLNSGNQKNYLTWYQQKPGQPPKLLIYWASTRESGVPDRFTGSGSGTDFTLTISSVQAEDLAVYYCQNDYSYPLTFGAGTKLEIKGGGGSGGGGSGGGGSEVQLLEQSGAELVRPGTSVKISCKASGYAFTNYWLGWVKQRPGHGLEWIGDIFPGSGNIHYNEKFKGKATLTADKSSSTAYMQLSSLTFEDSAVYFCARLRNWDEPMDYWGQGTTVTVSSTPSHLSHILPSFGLPTFNGLADPHSLCYDITVIPKFRPGPRWCAVQGQVDEKTFLHYDCGSKTVTPVSPLGKKLNVTTAWKAQNPVLREVVDILTEQLLDIQLENYIPKENRMWTTVHPGARKMKEKWENDKDMTMSFHYISMGDCTGWLEDFLMGMDSTLEPSAGGTV
notes: also called bispecific protein of NG-1118
B2: anti-EpCAM-ScFv-flexible linker-RAET1G3 fusion protein (without a C-terminal tag) (other)
chain: ELVMTQSPSSLTVTAGEKVTMSCKSSQSLLNSGNQKNYLTWYQQKPGQPPKLLIYWASTRESGVPDRFTGSGSGTDFTLTISSVQAEDLAVYYCQNDYSYPLTFGAGTKLEIKGGGGSGGGGSGGGGSEVQLLEQSGAELVRPGTSVKISCKASGYAFTNYWLGWVKQRPGHGLEWIGDIFPGSGNIHYNEKFKGKATLTADKSSSTAYMQLSSLTFEDSAVYFCARLRNWDEPMDYWGQGTTVTVSSGAGGSGGSSGSDGASGSRGLADPHSLCYDITVIPKFRPGPRWCAVQGQVDEKTFLHYDCGSKTVTPVSPLGKKLNVTTAWKAQNPVLREVVDILTEQLLDIQLENYIPKENRMWTTVHPGARKMKEKWENDKDMTMSFHYISMGDCTGWLEDFLMGMDSTLEPSAGGTV
notes: also called bispecific protein of NG-1117
B3: human CD19 EC domain-anti-EpCAM-ScFv fusion protein (without a C-terminal tag) (other)
chain: PEEPLVVKVEEGDNAVLQCLKGTSDGPTQQLTWSRESPLKPFLKLSLGLPGLGIHMRPLAIWLFIFNVSQQMGGFYLCQPGPPSEKAWQPGWTVNVEGSGELFRWNVSDLGGLGCGLKNRSSEGPSSPSGKLMSPKLYVWAKDRPEIWEGEPPCVPPRDSLNQSLSQDLTMAPGSTLWLSCGVPPDSVSRGPLSWTHVHPKGPKSLLSLELKDDRPARDMWVMETGLLLPRATAQDAGKYYCHRGNLTMSFHLEITARPVLWHWLLRTGGWKGGGGSELVMTQSPSSLTVTAGEKVTMSCKSSQSLLNSGNQKNYLTWYQQKPGQPPKLLIYWASTRESGVPDRFTGSGSGTDFTLTISSVQAEDLAVYYCQNDYSYPLTFGAGTKLEIKGGGGSGGGGSGGGGSEVQLLEQSGAELVRPGTSVKISCKASGYAFTNYWLGWVKQRPGHGLEWIGDIFPGSGNIHYNEKFKGKATLTADKSSSTAYMQLSSLTFEDSAVYFCARLRNWDEPMDYWGQGTTVTVSS
notes: also called bispecific protein of NG-1110
B4: anti-EpCAM-ScFv-RAET1G3 fusion protein (without a C-terminal tag) (other)
chain: ELVMTQSPSSLTVTAGEKVTMSCKSSQSLLNSGNQKNYLTWYQQKPGQPPKLLIYWASTRESGVPDRFTGSGSGTDFTLTISSVQAEDLAVYYCQNDYSYPLTFGAGTKLEIKGGGGSGGGGSGGGGSEVQLLEQSGAELVRPGTSVKISCKASGYAFTNYWLGWVKQRPGHGLEWIGDIFPGSGNIHYNEKFKGKATLTADKSSSTAYMQLSSLTFEDSAVYFCARLRNWDEPMDYWGQGTTVTVSSGGGGSGLADPHSLCYDITVIPKFRPGPRWCAVQGQVDEKTFLHYDCGSKTVTPVSPLGKKLNVTTAWKAQNPVLREVVDILTEQLLDIQLENYIPKENRMWTTVHPGARKMKEKWENDKDMTMSFHYISMGDCTGWLEDFLMGMDSTLEPSAGGTV
notes: also called bispecific protein of NG-1111
B5: anti-EpCAM-ScFv-rigid linker-human CD19 EC domain fusion protein (without a C-terminal tag) (other)
chain: ELVMTQSPSSLTVTAGEKVTMSCKSSQSLLNSGNQKNYLTWYQQKPGQPPKLLIYWASTRESGVPDRFTGSGSGTDFTLTISSVQAEDLAVYYCQNDYSYPLTFGAGTKLEIKGGGGSGGGGSGGGGSEVQLLEQSGAELVRPGTSVKISCKASGYAFTNYWLGWVKQRPGHGLEWIGDIFPGSGNIHYNEKFKGKATLTADKSSSTAYMQLSSLTFEDSAVYFCARLRNWDEPMDYWGQGTTVTVSSTPSHLSHILPSFGLPTFNPEEPLVVKVEEGDNAVLQCLKGTSDGPTQQLTWSRESPLKPFLKLSLGLPGLGIHMRPLAIWLFIFNVSQQMGGFYLCQPGPPSEKAWQPGWTVNVEGSGELFRWNVSDLGGLGCGLKNRSSEGPSSPSGKLMSPKLYVWAKDRPEIWEGEPPCVPPRDSLNQSLSQDLTMAPGSTLWLSCGVPPDSVSRGPLSWTHVHPKGPKSLLSLELKDDRPARDMWVMETGLLLPRATAQDAGKYYCHRGNLTMSFHLEITAR
notes: also called bispecific protein of NG-1114; bispecific protein of NG-1116
B6: RAET1G3-anti-EpCAM-ScFv fusion protein (without a C-terminal tag) (other)
chain: GLADPHSLCYDITVIPKFRPGPRWCAVQGQVDEKTFLHYDCGSKTVTPVSPLGKKLNVTTAWKAQNPVLREVVDILTEQLLDIQLENYIPKENRMWTTVHPGARKMKEKWENDKDMTMSFHYISMGDCTGWLEDFLMGMDSTLEPSAGGTVGGGGSELVMTQSPSSLTVTAGEKVTMSCKSSQSLLNSGNQKNYLTWYQQKPGQPPKLLIYWASTRESGVPDRFTGSGSGTDFTLTISSVQAEDLAVYYCQNDYSYPLTFGAGTKLEIKGGGGSGGGGSGGGGSEVQLLEQSGAELVRPGTSVKISCKASGYAFTNYWLGWVKQRPGHGLEWIGDIFPGSGNIHYNEKFKGKATLTADKSSSTAYMQLSSLTFEDSAVYFCARLRNWDEPMDYWGQGTTVTVSS
notes: also called bispecific protein of NG-1112
B7: anti-EpCAM-ScFv-human CD19 EC domain fusion protein (without a C-terminal tag) (other)
chain: ELVMTQSPSSLTVTAGEKVTMSCKSSQSLLNSGNQKNYLTWYQQKPGQPPKLLIYWASTRESGVPDRFTGSGSGTDFTLTISSVQAEDLAVYYCQNDYSYPLTFGAGTKLEIKGGGGSGGGGSGGGGSEVQLLEQSGAELVRPGTSVKISCKASGYAFTNYWLGWVKQRPGHGLEWIGDIFPGSGNIHYNEKFKGKATLTADKSSSTAYMQLSSLTFEDSAVYFCARLRNWDEPMDYWGQGTTVTVSSGGGGSPEEPLVVKVEEGDNAVLQCLKGTSDGPTQQLTWSRESPLKPFLKLSLGLPGLGIHMRPLAIWLFIFNVSQQMGGFYLCQPGPPSEKAWQPGWTVNVEGSGELFRWNVSDLGGLGCGLKNRSSEGPSSPSGKLMSPKLYVWAKDRPEIWEGEPPCVPPRDSLNQSLSQDLTMAPGSTLWLSCGVPPDSVSRGPLSWTHVHPKGPKSLLSLELKDDRPARDMWVMETGLLLPRATAQDAGKYYCHRGNLTMSFHLEITARPVLWHWLLRTGGWK
notes: also called bispecific protein of NG-1109
B8: anti-EpCAM-ScFv-flexible linker-human CD19 EC domain fusion protein (without a C-terminal tag) (other)
chain: ELVMTQSPSSLTVTAGEKVTMSCKSSQSLLNSGNQKNYLTWYQQKPGQPPKLLIYWASTRESGVPDRFTGSGSGTDFTLTISSVQAEDLAVYYCQNDYSYPLTFGAGTKLEIKGGGGSGGGGSGGGGSEVQLLEQSGAELVRPGTSVKISCKASGYAFTNYWLGWVKQRPGHGLEWIGDIFPGSGNIHYNEKFKGKATLTADKSSSTAYMQLSSLTFEDSAVYFCARLRNWDEPMDYWGQGTTVTVSSGAGGSGGSSGSDGASGSRPEEPLVVKVEEGDNAVLQCLKGTSDGPTQQLTWSRESPLKPFLKLSLGLPGLGIHMRPLAIWLFIFNVSQQMGGFYLCQPGPPSEKAWQPGWTVNVEGSGELFRWNVSDLGGLGCGLKNRSSEGPSSPSGKLMSPKLYVWAKDRPEIWEGEPPCVPPRDSLNQSLSQDLTMAPGSTLWLSCGVPPDSVSRGPLSWTHVHPKGPKSLLSLELKDDRPARDMWVMETGLLLPRATAQDAGKYYCHRGNLTMSFHLEITAR
notes: also called bispecific protein of NG-1113; bispecific protein of NG-1115

The assay addresses T1, EpCAM. The assay is described as follows: flow cytometry, supernatant of transfected A549 cells on fresh A549 cells.
Method: These plasmids were transfected into A549 human lung tumour cells and cells cultured for 72 hours. Cell culture supernatants (SN) containing secreted bispecific proteins were collected and added to fresh untransfected A549 cells in suspension and incubated for 1.5 hours at room temperature. During this time, the bispecific proteins present in the SN can bind to the A549 cells through their anti-EpCAM ScFv or anti-HER2 ScFV portion. […] For designs having CD19 as CAR-T target, the CD19 extracellular domain portion of the protein was detected by flow cytometry using an anti-CD19 antibody.
With B1, the binding result is listed as “binds”. Regarding B2, the binding result was “binds”. Under B3 stands “no binding”; under B4, “binds”. Turning to B5, the binding result was “binds”. Consider B6, for which the binding result was “no binding”. Turning to B7, the binding result is recorded as “binds”. Take B8: the binding result was “binds”.
